Reference: the supplement of paper PMC10567573

B1: CLCN6 (parent)
chain: MAGCRGSLCCCCRWCCCCGERETR
B2: RAB40A (parent)
chain: NWLGRPSKVLSLQDLCCRTIVSCT

Variants of: B1
Test: protein stability index of a GFP-peptide fusion (GPS, HEK-293T) (PSI 1-6); higher = more stable
Details: c terminus: a fixed tail appended
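Note: lentivirally expressed fusions sorted by FACS into six bins by GFP to DsRed ratio, PSI derived from sequencing read proportions per bin multiplied by bin number.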

Variant	protein stability index
MAGCRGSLCCCCRWCCCCGIRETR [E20I]	1.55
MAGCRGSLCCCCRWCCCCGWRETR [E20W]	1.11
MAGCRGSLCCCCRWCCCCGFRETR [E20F]	1.55
MAGCRGSLCCCCRWCCCCGDRETR [E20D]	2.27
MAGCRGSLCCCCRWCCCCGHRETR [E20H]	1.56
MAGCRGSLCCCCRWCCCCGCRETR [E20C]	2.16
MAGCRGSLCCCCRWCCCCGRRETR [E20R]	2.33
MAGCRGSLCCCCRWCCCCGGRETR [E20G]	2.24
MAGCRGSLCCCCRWCCCCGKRETR [E20K]	2.22
MAGCRGSLCCCCRWCCCCGYRETR [E20Y]	1.89
MAGCRGSLCCCCRWCCCCGNRETR [E20N]	2.36
MAGCRGSLCCCCRWCCCCGQRETR [E20Q]	1.55
MAGCRGSLCCCCRWCCCCGARETR [E20A]	1.96
MAGCRGSLCCCCRWCCCCGSRETR [E20S]	2.25
MAGCRGSLCCCCRWCCCCGLRETR [E20L]	2.06
MAGCRGSLCCCCRWCCCCGVRETR [E20V]	1.93
MAGCRGSLCCCCRWCCCCGTRETR [E20T]	1.01
MAGCRGSLCCCCRWCCCCPERETR [G19P]	2.17
MAGCRGSLCCCCRWCCCCAERETR [G19A]	1.49
MAGCRGSLCCCCRWCCCCMERETR [G19M]	2.34
MAGCRGSLCCCCRWCCCCCERETR [G19C]	1.83
MAGCRGSLCCCCRWCCCCKERETR [G19K]	1.8
MAGCRGSLCCCCRWCCCCHERETR [G19H]	1.15

Variant	protein stability index
MAGCRGSLCCCCRWCCCCDERETR [G19D]	2.22
MAGCRGSLCCCCRWCCCCFERETR [G19F]	2.53
MAGCRGSLCCCCRWCCCCWERETR [G19W]	1.66
MAGCRGSLCCCCRWCCCCEERETR [G19E]	1.86
MAGCRGSLCCCCRWCCCCTERETR [G19T]	2.02
MAGCRGSLCCCCRWCCCCYERETR [G19Y]	2.41
MAGCRGSLCCCCRWCCCCQERETR [G19Q]	1.29
MAGCRGSLCCCCRWCCCCNERETR [G19N]	1.44
MAGCRGSLCCCCRWCCCCIERETR [G19I]	1.45
MAGCRGSLCCCCRWCCKCGERETR [C17K]	1.89
MAGCRGSLCCCCRWCCRCGERETR [C17R]	2.67
MAGCRGSLCCCCRWCCYCGERETR [C17Y]	1.97
MAGCRGSLCCCCRWCCLCGERETR [C17L]	2.55
MAGCRGSLCCCCRWCCICGERETR [C17I]	1.62
MAGCRGSLCCCCRWCCFCGERETR [C17F]	2.29
MAGCRGSLCCCCRWCCWCGERETR [C17W]	2.41
MAGCRGSLCCCCRWCCPCGERETR [C17P]	1.8
MAGCRGSLCCCCRWCCECGERETR [C17E]	1.8
MAGCRGSLCCCCRWCCTCGERETR [C17T]	1.27
MAGCRGSLCCCCRWCCQCGERETR [C17Q]	1.09
MAGCRGSLCCCCRWCCNCGERETR [C17N]	1.52
MAGCRGSLCCCCRWCCVCGERETR [C17V]	1.41
MAGCRGSLCCCCRWCCSCGERETR [C17S]	1.45

Variant	protein stability index
MAGCRGSLCCCCRWCCACGERETR [C17A]	2.48
MAGCRGSLCCCCRWCCDCGERETR [C17D]	1.96
MAGCRGSLCCCCRWCCCCGEIETR [R21I]	1.5
MAGCRGSLCCCCRWCCCCGELETR [R21L]	1.76
MAGCRGSLCCCCRWCCCCGEEETR [R21E]	2.27
MAGCRGSLCCCCRWCCCCGECETR [R21C]	2.56
MAGCRGSLCCCCRWCCCCGEQETR [R21Q]	1.39
MAGCRGSLCCCCRWCCCCGETETR [R21T]	2.77
MAGCRGSLCCCCRWCCCCGEKETR [R21K]	1.79
MAGCRGSLCCCCRWCCCCGEMETR [R21M]	1.08
MAGCRGSLCCCCRWCCCCGEFETR [R21F]	1.06
MAGCRGSLCCCCRWCCCCGEVETR [R21V]	1.66
MAGCRGSLCCCCRWCCCCGEDETR [R21D]	2.82
MAGCRGSLCCCCRWCCCCGEAETR [R21A]	2.37
MAGCRGSLCCCCRWCCCCGEWETR [R21W]	1.52
MAGCRGSLCCCCRWCCCCGEYETR [R21Y]	2.8
MAGCRGSLCCCCRWCCCCGENETR [R21N]	1.87
MAGCRGSLCCCCRWCCCCGESETR [R21S]	2.18
MAGCRGSLCCCCRWCCCKGERETR [C18K]	1.85
MAGCRGSLCCCCRWCCCPGERETR [C18P]	1.8
MAGCRGSLCCCCRWCCCSGERETR [C18S]	2.47
MAGCRGSLCCCCRWCCCDGERETR [C18D]	2.77
MAGCRGSLCCCCRWCCCQGERETR [C18Q]	2.58

Variant	protein stability index
MAGCRGSLCCCCRWCCCHGERETR [C18H]	2.06
MAGCRGSLCCCCRWCCCVGERETR [C18V]	1.3
MAGCRGSLCCCCRWCCCAGERETR [C18A]	1.26
MAGCRGSLCCCCRWCCCLGERETR [C18L]	2.49
MAGCRGSLCCCCRWCCCTGERETR [C18T]	1.86
MAGCRGSLCCCCRWCCCGGERETR [C18G]	1.79
MAGCRGSLCCCCRWCCCNGERETR [C18N]	1.49
MAGCRGSLCCCCRWCCCYGERETR [C18Y]	1.84
MAGCRGSLCCCCRWCCCMGERETR [C18M]	1.42
MAGCRGSLCCCCRWCCCWGERETR [C18W]	3.21
MAGCRGSLCCCCRWCLCCGERETR [C16L]	1.55
MAGCRGSLCCCCRWCWCCGERETR [C16W]	2.86
MAGCRGSLCCCCRWCICCGERETR [C16I]	2.23
MAGCRGSLCCCCRWCRCCGERETR [C16R]	1.28
MAGCRGSLCCCCRWCTCCGERETR [C16T]	1.86
MAGCRGSLCCCCRWCDCCGERETR [C16D]	2.66
MAGCRGSLCCCCRWCKCCGERETR [C16K]	1.65
MAGCRGSLCCCCRWCECCGERETR [C16E]	2.22
MAGCRGSLCCCCRWCPCCGERETR [C16P]	1.33
MAGCRGSLCCCCRWCACCGERETR [C16A]	2.12
MAGCRGSLCCCCRWCVCCGERETR [C16V]	2.02
MAGCRGSLCCCCRWCHCCGERETR [C16H]	1.47
MAGCRGSLCCCCRWCSCCGERETR [C16S]	1

Variant	protein stability index
MAGCRGSLCCCCRWCCCCGERETD [R24D]	2.79
MAGCRGSLCCCCRWCCCCGERETT [R24T]	2.71
MAGCRGSLCCCCRWCCCCGERETP [R24P]	2.38
MAGCRGSLCCCCRWCCCCGERETQ [R24Q]	2.54
MAGCRGSLCCCCRWCCCCGERETK [R24K]	2.78
MAGCRGSLCCCCRWCCCCGERETN [R24N]	2.74
MAGCRGSLCCCCRWCCCCGERETE [R24E]	2.95
MAGCRGSLCCCCRWCCCCGERETM [R24M]	1.91
MAGCRGSLCCCCRWCCCCGERETC [R24C]	3.05
MAGCRGSLCCCCRWCCCCGERETG [R24G]	2.44
MAGCRGSLCCCCRWCCCCGERETI [R24I]	1.87
MAGCRGSLCCCCRWCCCCGERETY [R24Y]	2.44
MAGCRGSLCCCCRWCCCCGERETH [R24H]	2.55
MAGCRGSLCCCCRWCCCCGERETL [R24L]	2.73
MAGCRGSLCCCCRWCCCCGERETS [R24S]	2.57
MAGCRGSLCCCCRWCCCCGERETF [R24F]	1.79
MAGCRGSLCCCCRWCCCCGEREQR [T23Q]	1.8
MAGCRGSLCCCCRWCCCCGEREGR [T23G]	1.78
MAGCRGSLCCCCRWCCCCGEREYR [T23Y]	1.79
MAGCRGSLCCCCRWCCCCGERECR [T23C]	2.73
MAGCRGSLCCCCRWCCCCGEREWR [T23W]	2.78
MAGCRGSLCCCCRWCCCCGERESR [T23S]	2.36
MAGCRGSLCCCCRWCCCCGEREMR [T23M]	1.87

Variant	protein stability index
MAGCRGSLCCCCRWCCCCGEREPR [T23P]	1.83
MAGCRGSLCCCCRWCCCCGERENR [T23N]	2.15
MAGCRGSLCCCCRWCCCCGERERR [T23R]	1.77
MAGCRGSLCCCCRWCCCCGEREDR [T23D]	2.15
MAGCRGSLCCCCRWCCCCGERMTR [E22M]	1.65
MAGCRGSLCCCCRWCCCCGERFTR [E22F]	2.16
MAGCRGSLCCCCRWCCCCGERSTR [E22S]	1.65
MAGCRGSLCCCCRWCCCCGERCTR [E22C]	1.89
MAGCRGSLCCCCRWCCCCGERITR [E22I]	2.15
MAGCRGSLCCCCRWCCCCGERNTR [E22N]	1.48
MAGCRGSLCCCCRWCCCCGERLTR [E22L]	2.3
MAGCRGSLCCCCRWCCCCGERHTR [E22H]	1.73
MAGCRGSLCCCCRWCCCCGERQTR [E22Q]	1.83
MAGCRGSLCCCCRWCCCCGERTTR [E22T]	2.09
MAGCRGSLCCCCRWCCCCGERPTR [E22P]	2.12
MAGCRGSLCCCCRWCCCCGERRTR [E22R]	1.69
MAGCRGSLCCCCRWCCCCGERDTR [E22D]	1.92
MAGCRGSLCCCCRWCCCCGERKTR [E22K]	1.49

Variants of: B2
Test: as above
Details: c terminus: a fixed tail appended

Variant	protein stability index
SWLGRPSKVLSLQDLCCRTIVSCT [N1S]	2.36
HWLGRPSKVLSLQDLCCRTIVSCT [N1H]	2.2
FWLGRPSKVLSLQDLCCRTIVSCT [N1F]	2.16
VWLGRPSKVLSLQDLCCRTIVSCT [N1V]	2.15
YWLGRPSKVLSLQDLCCRTIVSCT [N1Y]	1.83
QWLGRPSKVLSLQDLCCRTIVSCT [N1Q]	2.29
AWLGRPSKVLSLQDLCCRTIVSCT [N1A]	2.04
WWLGRPSKVLSLQDLCCRTIVSCT [N1W]	2.22
MWLGRPSKVLSLQDLCCRTIVSCT [N1M]	1.75
TWLGRPSKVLSLQDLCCRTIVSCT [N1T]	2.16
IWLGRPSKVLSLQDLCCRTIVSCT [N1I]	1.84
PWLGRPSKVLSLQDLCCRTIVSCT [N1P]	2.35
RWLGRPSKVLSLQDLCCRTIVSCT [N1R]	2.21
CWLGRPSKVLSLQDLCCRTIVSCT [N1C]	2.02
DWLGRPSKVLSLQDLCCRTIVSCT [N1D]	2.12
KWLGRPSKVLSLQDLCCRTIVSCT [N1K]	1.97
EWLGRPSKVLSLQDLCCRTIVSCT [N1E]	2.6
GWLGRPSKVLSLQDLCCRTIVSCT [N1G]	3.03
LWLGRPSKVLSLQDLCCRTIVSCT [N1L]	1.62
NWEGRPSKVLSLQDLCCRTIVSCT [L3E]	2.75
NWQGRPSKVLSLQDLCCRTIVSCT [L3Q]	2.85
NWCGRPSKVLSLQDLCCRTIVSCT [L3C]	2.39
NWPGRPSKVLSLQDLCCRTIVSCT [L3P]	2.58
NWVGRPSKVLSLQDLCCRTIVSCT [L3V]	2.26
NWSGRPSKVLSLQDLCCRTIVSCT [L3S]	2.64
NWNGRPSKVLSLQDLCCRTIVSCT [L3N]	2.46
NWGGRPSKVLSLQDLCCRTIVSCT [L3G]	2.69
NWAGRPSKVLSLQDLCCRTIVSCT [L3A]	2.53

Variant	protein stability index
NWTGRPSKVLSLQDLCCRTIVSCT [L3T]	2.95
NWHGRPSKVLSLQDLCCRTIVSCT [L3H]	2.3
NWDGRPSKVLSLQDLCCRTIVSCT [L3D]	2.62
NWRGRPSKVLSLQDLCCRTIVSCT [L3R]	2.56
NWMGRPSKVLSLQDLCCRTIVSCT [L3M]	2.2
NWKGRPSKVLSLQDLCCRTIVSCT [L3K]	3.05
NWFGRPSKVLSLQDLCCRTIVSCT [L3F]	2.28
NWIGRPSKVLSLQDLCCRTIVSCT [L3I]	2.36
NILGRPSKVLSLQDLCCRTIVSCT [W2I]	3.01
NFLGRPSKVLSLQDLCCRTIVSCT [W2F]	2.64
NPLGRPSKVLSLQDLCCRTIVSCT [W2P]	2.81
NLLGRPSKVLSLQDLCCRTIVSCT [W2L]	2.68
NMLGRPSKVLSLQDLCCRTIVSCT [W2M]	2.62
NGLGRPSKVLSLQDLCCRTIVSCT [W2G]	3.23
NTLGRPSKVLSLQDLCCRTIVSCT [W2T]	3.08
NELGRPSKVLSLQDLCCRTIVSCT [W2E]	3.18
NNLGRPSKVLSLQDLCCRTIVSCT [W2N]	3.23
NALGRPSKVLSLQDLCCRTIVSCT [W2A]	3.05
NQLGRPSKVLSLQDLCCRTIVSCT [W2Q]	3.14
NRLGRPSKVLSLQDLCCRTIVSCT [W2R]	3
NSLGRPSKVLSLQDLCCRTIVSCT [W2S]	2.96
NCLGRPSKVLSLQDLCCRTIVSCT [W2C]	2.71
NYLGRPSKVLSLQDLCCRTIVSCT [W2Y]	2.68
NDLGRPSKVLSLQDLCCRTIVSCT [W2D]	3.7
NVLGRPSKVLSLQDLCCRTIVSCT [W2V]	2.71
NKLGRPSKVLSLQDLCCRTIVSCT [W2K]	3.11
NHLGRPSKVLSLQDLCCRTIVSCT [W2H]	3.05
